Assay: label from the status in PepcDB records
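Note: failed if final PepcDB status was selected cloned or expressed and not failed if soluble or beyond.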

| Sequence | protein production |
| --- | --- |
| MTFGQSIGTCFAKYITFSGRASRPEYWYFFLFLLLGSIAATMLDALLFDAVTTTVETSDTSTSARIENTGPIAPIFSLAVFLPHLAVAFRRMHDTGRSGIYAILPFLLMLCAVLVLVFGVGIASSFAAGGSLDLLFTRATLLLLIPTLAVLFISPLLVLWWLTRPSQPGTNQYGPNPVRAVAS | failed |
| MTFGSLFRNQTRTVVKGHIFNLPNSLSILRILLIPWFIYYLDAGQTHIALIIMVVALLSDWFDGQMARWTNEVSDMGKILDPLADKLCLASVALYYLWKGELPVWFVVFVVFRDLVIFLGAAWIRHRHNVLTTSLWPGKWAVGFVSMMFISMVWPLPVFRQWPVKEFFMYLSAATLFYSFVEYCIRFYKIQKGAEFKA | failed |
| MTGALVSSEMMARAAAAAGLSDEADRPGPAPLASPSYLALESASILTDGGVFLKVMHPEMRQDFDLGAAMALARQAGEAGIGPRVLWADPAQGAIAMEALTEAGGWRRAMQVDLQEAPVLGAAMSALKALHATPALSSRFDPFAQIDGLIADYSRLGAPLPEDTGWLRRLIGAAEPVLRTGADLAPCRNDGAASNLMLGPGGAVRLVDYDRAGMNDPLYDVGALLAETTDFEREMQAGFAAYAGAFDEVAFARARLWSFVDDMLHALWSRLKARTSARGGVEWLKYGEWRLMRLRMALNHPQYEQKIRLAGGAA | failed |
| MTGASRARMHQLEREGDRPAKRVNKLLSDQETMIGAVLLGNNLINILASALATQVLTTLIPGPWGVAVATAAMTVLILIFAEVLPKTLAIVRSDDVARALSAPTLFIVRLFGPIIYAIQWIVRRTLRVFGVKLDMAVDVLAAHEEIRGAVDYHHSEGLVETDDRRMLGGVLDLSDMDVSEIMVHRKSMVLLDAGLPARELVDAVLEAQHTRIPLYRDQPDNIVGVLHARDLLKALAECPTGVEGLDIAAILREPWFIPDATNLKDQLNAFLKRKNHFALVVDEYGALQGLVTLEDILEEIVGEIEDEHDTTLDGVRRQGDGSVNVDGHVTVRDLNRAMDWRLPEGEAVTIAGLVIHEAQMIPEPGQTFIFYRHRFQVLRRQRNQITALRISARLDDDSDA | failed |
| MTGFAPQAGLPSHSVQVADHFDGNSPRGSPMSSGGHPVDRNRGLQPQKEAFSGPAAGKPFHPQALSKYSRHYSPEDELSAEAQPIAAYKIVSQSNKQLLAGSVSVTSLSSRTTELATADPFALAPFPSKAGKQKP | failed |
| MTGHIDPTKEVFAQFRANDREGPIHMLNLVRLRPRAAYPDGRETTGAEAYAAYGRDSGPVFERLGGKVVWQGQFELMLIGPQDEHWDHVFIAEYPSVAAFVEMIRDPVYREAVKHRQAAVEDSRLIRLKPLKPGKGFGEIPT | not failed |
| MTGKPLTDYVALGFTALERGDCQEAVNIFRRAQETGPTARSFVGLGLAFHRLGDPPAARWAFAKALDLEPADRDANEWIERIGRPAVPARTSGGRGCRFRAGEDFLQIKENGSWRRFFIKGINLGLGLPGYFPGEYPIHRETYRRWFRLMGELGVNSLRVYAVQSPGFYEALADHNEQGGRLFLFQGIWLELPEDGDFRGRDFLAYAHRQIREAVDSVCGSADFPERPGLPHGSYRRDVSPWTAAYVVGREWESCAVRAFNGRYGRKRGGFAGQFLKVDDGLPFEQWAAEICDYLQSYEHATYDCTHPVTTINWPTLDPLTHPSESTYEEGLIRQGFQVNVDVCNEDEDVETFDPALIASRQGAGFFATYHVYPYYPDFLNNDFLDVENPYREYLKRLRRHHGRQPVVIAEFGVPSSREATHWQRDGWHHGGHDEVSQGKINGYMMEAIRDAGLAGGMLFSWFDEWFKRNWVFLPYELPAERNPFWFNHQDAEQTYGLMAAYPGYPGKVVTLAGRREEWRDASLLQEKRGGAPLHRFGDGRDGARTLVRLSARHDEGFFYLCLETAEPVDFSAAHYLIGLNTCGAKAGETLLPFDTNARSPLGLTFLIHLAGEGASRILVSRFYDKYLNEGLPVRPVPSDTGEWVVMQNITNHRRISKDGTRFYPSRVFSMSGLRFGSLDPQSPRFDSLADWHVSGTLIELRLPWGLLNITDPSSRQVLWMAEQGGKTHTTDGIAAIACSYRPSGEGLAARPTGGRTNLADSLPAGLGSDAVRRYQWERWNHPLYHTYLKRSYYLYRDVLDRMPE | failed |
| MTGLINAIPATNKDEYKNVGVYIEHRGDELKRPSIEMIGIGKQLARKVNEKLICVVIGDKVDGIAKEVGEYGCDIVLAAESPELAEYRTMPYAEIIGGYIQEYKPNIFLLAATRNGRDLASRIAVKSRTGITADCTVLDIDENRTLLANRPTYGESTLAEILCRNHRPQMATARPGIFPPAEKEKDHKYEVIKKKVDVDKKLLGKQILKFI | not failed |
| MTGSCLCQGIRYEISGHGLGDIIECHCQRCRKANGTAYATNTPVHVDDFKIVQGEHLLKKYQSTPTTQRCFCSECGSPIMSIKTDTPEYYRLRIGTLDTKIEQKPSMHIFAAHKAEWDTITDDLPQYAERP | failed |
| MTGVLSGMAKTYLEFSDPNGAEHKFYEVTVDGPELTIRYGRIGTDGQRSTKTFPDAAVAQAEADKKIREKRKKGYEDAVMGARQKRTVVRREVTETRSTTRQIAPVLWRFKTRSAAYGIFVDQNTAWVGNDSGEVFALTLSGEVDRSFRLPDGVKCLVSDQFRTFAGCDDGNVYDLSGKLPFMAYEVESKAALLWLDLHGGTLGVSDSGGGVYAFDAESDQQWGHTDDRASMGWMVRVDARGVYYGHSRGVGMFDRESGFPNWHRPTRGSVLFGWQEGNDLYAGTSANLIQRFTKAGEHVQDYQCDGSVLSCAASPGGEFVFAGDSGSAVYCFNRAGERLWKLGTGCASALSMQFAADKLYIVTTNGTLAAIDVSPAAIEAARQGTTPEVRDVKLAAAMPAQAPATELTVTRNASGGVLLRGVQEGSKVRIRPDDSRFHKDWNVQFPRNLRAADGLYVVDDLEDAGGFYRVVGDLRRLENLEHHHHHH | not failed |
| MTHIQLDFSKTLEFFGEHELKQQQEIVKSIHKTIHEGTGAGSDFLGWVDLPVDYDKEEFSRIVEASKRIKENSDVLVVIGIGGSYLGARAAIEMLTSSFRNSNEYPEIVFVGNHLSSTYTKELVDYLADKDFSVNVISKSGTTTEPAVAFRLFKQLVEERYGKEEAQKRIFATTDKEKGALKQLATNEGYETFIVPDDVGGRYSVLTAVGLLPIATAGINIEAMMIGAAKAREELSSDKLEENIAYQYATIRNILYAKGYTTEMLINYEPSMQYFNEWWKQLFGESEGKDFKGIYPSSANYTTDLHSLGQYVQEGRRFLFETVVKVNHPKYDITIEKDSDDLDGLNYLAGKTIDEVNTKAFEGTLLAHTDGGVPNMVVNIPQLDEETFGYVVYFFELACAMSGYQLGVNPFNQPGVEAYKQNMFALLGKPGFEDLKKELEERL | failed |
| MTHNIHDNISQWMKSNEETPIVMSSRIRLARNLENHVHPLMYATENDGFRVINEVQDALPNFELMRLDQMDQQSKMKMVAKHLISPELIKQPAAAVLVNDDESLSVMINEEDHIRIQAMGTDTTLQALYNQASSIDDELDRSLDISYDEQLGYLTTCPTNIGTGMRASVMLHLPGLSIMKRMTRIAQTINRFGYTIRGIYGEGSQVYGHTYQVSNQLTLGKSELEIIETLTEVVNQIIHEEKQIRQKLDTYNQLETQDRVFRSLGILQNCRMITMEEASYRLSEVKLGIDLNYIELQNFKFNELMVAIQSPFLLDEEDDKSVKEKRADILREHIK | failed |
| MTHSQWQSLPRRGAYVAAINGTLGGGCAGLITASVTVVWLHAWRYWPAVLGVTAVIALLGAWLAVKRHRLTQWQLDQHGLALQRGHLWQSDTRVPISRVQHVDLRRGPIERATGLTTLVVHTAGSRLNAVALSGLDQDDAERLRDRLARQLDHDDDAL | failed |
| MTHTVIVPGVGGSEQHHWQSWLQRQLSSCSRVEQNDWNLPVLSDWVSHLISHVQQLEQPVQIVAHSFGCLTTLAALEQHPQLINQVKHITLVAPANPERFGEAGFARDSQTDYRAYFHQLKPSIKTQLIISENDPWLDFEEALQLAKSWQVRATNLGKVGHINVASGFGPFPEIFDYMLP | failed |
| MTHVEDDKEFKEKPLVQVLSDDDSEVKEAKDGGGEEVTGGDGEGEANEEDLGTEYLVRPVGEVEDEDDASDFDPEENGLDEEEGDEEIEEDDVDEDISLSAGKSEPLSKRKRVAKDHSEQGDVTGDNIRPSKR | failed |
| MTIAEIRKFAQTTQKFVEAENLFEHGNVVLPKKYLNKARGMAEVLYNSQVIKVSFTAKDGELTCKCSCLANVDNCVHIVAVLLKYHQMLVESKRSFNLAEAFHLDCDQAEMLIENLSLEIIAGGNFKLGFTINLDKHNPQPSVLRFYCCDATFVYFLHLENDTLHSVELSKFKPEERATLLFFDKLCKQFTVGYDRNSLLFPLAGFLKELQANTEPTIFVFNDDKIDNILFLRISKKHHGLNHVCGFSGKKVFDFVTYKQKEKQIVLRSAYLSKFTDFKFPYTINIYKLQFGEPLFFYFLIQLKRDGFKNFYFQSEDSIVKEKEYLPKLYFKVEYDPVKNKFVSDAFFKYKNHFNKGTTTVYPHRYYMAKKSDRGGFNRLLFYEEAVENFYQDQFDLGYFRKFEHLPIQDKNQIEAFKAALDDLMPVDLAEVSLSDNLLHQKPLHFALSDLEAVAVDDKQIKLSFAPSAVELKLIKRILSAYHKGNVVCIDQESWYDLKQPAAKELIQFNQFDLRNATSDGNHIYLPKYYLFEVAKIFSQYLDIKNLFDVPTIKKIEDQNNNVFDLSLEHKKITSLRNYQQEGVKIRGLEENKFGGILADEMGLGKTVQVIFALLDSYLKNHVNLPSLIIVPASLLLNKSEFEKFAPQIKVKVANIPSKERGELYEKLTNEILIVSFNVLRSDVKLITKQRFHYVVIDEAQGIKNDSSSITKAAKKVKGNFCLALTGTPIENRLLDLSCFDFVLPSFLGNKKQFTDQFEKEKTDQSFHLLMQRTSPFILRRTKSKVLKELPNKITTDIYVELNPMHQKLYEEERDRGLEEIKQIQDKSSFNILTLILKLRHLCSLPKNSQGILENSAKKEAALEIIHEAIENQRKIILFTQFIDVIDHFKDTFKEQGIEYFIFDGRKSPKSRHSIIEKFNNAKNPCVLLASLKAGGVGINLTAAEVVIHFDVWNTAVENQATDRAHRIGQKKTVQVYRIIAKNTIEERVCQVQAEKQELVSKTLVEDVNFFESLTNEELLRLFE | failed |
| MTIAQEPTALNFECETGNYHTFCPISCVAWLYQKIEDSFFLVIGTKTCGYFLQNAMGVMIFAEPRYAMAELEEGDISAQLNDYAELKRLCEQIKRDRNPSVIVWIGTCTTEIIKMDLEGLAPKLEGEIGIPIVVARANGLDYAFTQGEDTVLAAMAHRCPDKAPVAEAEKNLEHHHHHH | not failed |
| MTIDDMSLVVGMYGNYEVTKTGNLVGILEVSGINLDLLNETEQQDVFEDYGAFLMSTLGEGVDDTLQFLEPTIPVNMTTYLNGLKRRYLALQKDHPEQQFKIQLIASYLDHFTKVQESKNMTTKQHLLIVKVPIKDKSAESLNLAVAHLDEKIEQVKRDIENALTDFDVTAKILTSQEVQEILKNLINFNGLEHHHHHH | not failed |
| MTIFEKNVIEFVTVAAEFCAFLERAEHMKRKAFVDTSLKILPLLYLKASLLPKCETIGDEAPETYVTEEIYEILRINLAGLMGEKDDYLDVFVQDMVYSDQPIKKSVSEDLADIYQDIKDFIFVFQLGLNETMNDSLAICQENFGLLWGQKLVNTLRALHDVKYLEHHHHHH | failed |

Reference: a protein production outcome set (Wang et al. 2014)
